Like-named read-outs stand apart in the source and are kept apart here.
T1: human CD32b (FcgRIIb) (human, UniProt P31994)
T1 chain: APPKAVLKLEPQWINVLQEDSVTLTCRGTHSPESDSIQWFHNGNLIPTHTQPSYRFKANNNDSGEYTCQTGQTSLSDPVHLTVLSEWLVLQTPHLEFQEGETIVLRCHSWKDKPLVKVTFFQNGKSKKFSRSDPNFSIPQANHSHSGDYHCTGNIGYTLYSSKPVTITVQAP


Assays:
human HER2 [1] = molecular target: T2, human HER2 (human, UniProt P04626); assay: FACS
human HER2 [2] = molecular target: T2, human HER2; assay: FACS; remark: listed apart in the source
human 4-1BB (CD137) = human 4-1BB (CD137) (human, UniProt Q07011); assay: FACS
human CD32b (FcgRIIb) = molecular target: T1, human CD32b (FcgRIIb); assay: FACS, CHOS-hCD32b cells

Chain of human 4-1BB (CD137) (Q07011 24-186): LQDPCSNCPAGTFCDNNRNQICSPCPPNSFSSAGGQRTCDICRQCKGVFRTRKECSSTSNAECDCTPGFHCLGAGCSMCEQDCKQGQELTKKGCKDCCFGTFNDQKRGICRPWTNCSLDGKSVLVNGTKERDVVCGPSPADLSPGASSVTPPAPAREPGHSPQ

Binder	EC50 (human HER2 [1])	EC50 (human HER2 [2])	binding result (human 4-1BB (CD137))	EC50 (human CD32b (FcgRIIb))
HER2xHER2x4-1BB-2 (both HER2 arms) (antibody) chain 1: not shown chain 2: not shown chain 3: EVQLVESGGGLVQPGGSLRLSCAASGFTFTDYTMDWVRQAPGKGLEWVADVNPNSGGSIYNQRFKGRFTLSVDRSKNTLYLQMNSLRAEDTAVYYCARNLGPSFYFDYWGQGTLVTVSS chain 4: DIQMTQSPSSLSASVGDRVTITCKASQDVSIGVAWYQQKPGKAPKLLIYSASYRYTGVPSRFSGSGSGTDFTLTISSLQPEDFATYYCQQYYIYPYTFGQGTKVEIK	1.81 nM	2.88 nM		
HER2xHER2x4-1BB-1 (both HER2 arms) (antibody) chain 1: not shown chain 2: DIQMTQSPSSLSASVGDRVTITCRASQSVQGAVAWYQQKPGKAPKLLIYSASFLYSGVPSRFSGSRSGTDFTLTISSLQPEDFATYYCQQHSTTPPTFGQGTKVEIK chain 3: EVQLVESGGGLVQPGGSLRLSCAASGFTFTDYTMDWVRQAPGKGLEWVADVNPNSGGSIYNQRFKGRFTLSVDRSKNTLYLQMNSLRAEDTAVYYCARNLGPSFYFDYWGQGTLVTVSS chain 4: DIQMTQSPSSLSASVGDRVTITCKASQDVSIGVAWYQQKPGKAPKLLIYSASYRYTGVPSRFSGSGSGTDFTLTISSLQPEDFATYYCQQYYIYPYTFGQGTKVEIK	1.82 nM	2.65 nM		
Pertuzumab (antibody, V domains shown) VH: EVQLVESGGGLVQPGGSLRLSCAASGFTFTDYTMDWVRQAPGKGLEWVADVNPNSGGSIYNQRFKGRFTLSVDRSKNTLYLQMNSLRAEDTAVYYCARNLGPSFYFDYWGQGTLVTVSS VL: DIQMTQSPSSLSASVGDRVTITCKASQDVSIGVAWYQQKPGKAPKLLIYSASYRYTGVPSRFSGSGSGTDFTLTISSLQPEDFATYYCQQYYIYPYTFGQGTKVEIK			no binding	
HER2xHER2x4-1BB-1 (full) (antibody) chain 1: not shown chain 2: DIQMTQSPSSLSASVGDRVTITCRASQSVQGAVAWYQQKPGKAPKLLIYSASFLYSGVPSRFSGSRSGTDFTLTISSLQPEDFATYYCQQHSTTPPTFGQGTKVEIKRTVAAPSVFIFPPSDEQLKSGRASVVCLLNNFYPREAKVQWKVDNALQSGNSQESVTEQDSKDSTYSLSSRLQLSKADYEKHKVYACEVTHQGLSSPVTKSFNRGEC chain 3: not shown chain 4: DIQMTQSPSSLSASVGDRVTITCKASQDVSIGVAWYQQKPGKAPKLLIYSASYRYTGVPSRFSGSGSGTDFTLTISSLQPEDFATYYCQQYYIYPYTFGQGTKVEIKRTVAAPSVFIFPPSDEELKSGTASVQCLLNNFYPREAKVQWKVDNALQSGNSQESVTEQDSKDSTYSLSSELTLSKADYEKHKVYACEVTHQGLSSPVTKSFNRGEC				1.06 nM

Reference: patent US20260347491 (published 2026)
